These results are taken from patent US20210000969A1 (HUALAN GENETIC ENGINEERING, published 2021).

In this assay the target is T1, mouse PV-1 protein (mouse, UniProt Q91VC4 1-438, limits assumed).
T1 construct: The form tested is not described
T1 sequence: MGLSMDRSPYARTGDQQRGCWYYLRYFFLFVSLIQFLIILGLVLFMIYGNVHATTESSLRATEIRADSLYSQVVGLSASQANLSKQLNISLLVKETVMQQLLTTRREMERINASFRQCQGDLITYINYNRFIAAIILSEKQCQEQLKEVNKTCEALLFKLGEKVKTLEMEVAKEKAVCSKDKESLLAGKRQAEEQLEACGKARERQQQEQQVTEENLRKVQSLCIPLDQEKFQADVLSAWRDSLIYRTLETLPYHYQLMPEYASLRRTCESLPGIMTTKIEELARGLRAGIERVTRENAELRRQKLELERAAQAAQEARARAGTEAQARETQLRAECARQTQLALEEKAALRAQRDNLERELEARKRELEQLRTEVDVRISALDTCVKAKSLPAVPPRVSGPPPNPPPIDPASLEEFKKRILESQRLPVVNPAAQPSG
Briefly: not described.

B1: murine monoclonal antibody STW-139-15 (antibody, V domains shown)
VH: QVQLQQSGAELVKPGASVKLSCKASGYTFTDYYMYWVKQRPGQGLELIGEINPTNGDVNFNEMFKSKATLTVDTSSRTAYMQLSSLTSEDSAVYYCTSIHYWGQGTLVTVSA
VL: DIVMTQSPSSMYASLGERITITCKASQDIKTNLSWYQQKPWKSPKTLIYYATDLADGVPSRFSGSGSGQYFSLTISSLESDDTATYYCLQHDDRPFTFGSGTKLEIK
For the molecule B1, the binding result is “no binding”.
